Assay [1] deals with acetylcholine receptor. The assay is described as follows: SPR, acetylcholine receptor on CM5 chip, peptide 10 µM.
In assay [2] the target is acetylcholine receptor protein. The experiment in a line: SPR, concentration series (FIG. 9); given as 'affinity'.
Assay [3] concerns the target acetylcholine receptor. The experiment in a line: SPR, AchR immobilized on chip.
Assay [4] has as its target acetylcholine receptor. The assay is described as follows: SPR, peptide at 10 uM on immobilised AchR.
For assay [5], the target named is acetylcholine receptor. The experiment in a line: SPR, acetylcholine receptor immobilized on CM5 chip, peptide at 10 uM.
In assay [6] the target is acetylcholine receptor. The experiment in a line: SPR, acetylcholine receptor immobilized on chip, peptide at 10 uM.
In assay [7] the target is acetylcholine receptor protein. The assay is described as follows: SPR, receptor on CM5 chip, method of Example 1 (FIG. 3).
For assay [8], the target named is acetylcholine receptor protein. The experiment in a line: SPR, affinity against the reference Synake.
Assay [9] addresses acetylcholine receptor protein. The assay is described as follows: SPR (Biacore 3000), receptor immobilised on CM5 chip, peptide in solution; given as 'affinity'.

In the case of KGRLRK [6mer-2-590], in the assay with acetylcholine receptor [1], the Binding affinity (RU) is 148 RU.

In the assay with acetylcholine receptor [1], KLYLRR [6mer-2-573] registered a Binding affinity (RU) of 121 RU.

On to RSQLKR [6mer-2-593], for which, in the assay with acetylcholine receptor [1], the Binding affinity (RU) was found to be 139 RU.

In turn, RWVLRK [6mer-2-592] had a Binding affinity (RU) with acetylcholine receptor [1] of 122 RU.

RSQLKK [6mer-2-600]: in the assay with acetylcholine receptor [1], the Binding affinity (RU) was found to be 139 RU.

Regarding KRLTRK [6mer-2-584], in the assay with acetylcholine receptor [1], the Binding affinity (RU) turned out to be 148 RU.

As for RSVLRK [6mer-2-578], the Binding affinity (RU) with acetylcholine receptor [1] was determined as 135 RU.

In the assay with acetylcholine receptor [1], KGILRR [6mer-2-591] had a Binding affinity (RU) of 146 RU.

As to KVFRRR [6mer-2-598], the Binding affinity (RU) with acetylcholine receptor [1] turned out to be 146 RU.

For the molecule RGYSRK [6mer-2-575], in the assay with acetylcholine receptor [1], the Binding affinity (RU) stood at 139 RU.

KWFYKK [6mer-2-588] yielded a Binding affinity (RU) with acetylcholine receptor [1] of 149 RU.

KRISKR [6mer-2-587] had a Binding affinity (RU) in the assay with acetylcholine receptor [1] of 148 RU.

For the molecule RVYYKR [6mer-2-570], the Binding affinity (RU) with acetylcholine receptor [1] is 148 RU.

Turning to RKRIRR [6mer-1-43], the Kd in [2] was 0.609 µM. Also, the Binding affinity (RU) with acetylcholine receptor [3] and in the assay with acetylcholine receptor [4] was 548 RU in each case.

In turn, RKNEK [5mer-1200] gave a Binding affinity (RU) in the assay with acetylcholine receptor [5] of 16 RU.

In the assay with acetylcholine receptor [1], RWQYRK [6mer-2-579] gave a Binding affinity (RU) of 135 RU.

On to KGVYRK [6mer-2-574], for which, in the assay with acetylcholine receptor [1], the Binding affinity (RU) is 153 RU.

As for KLRCKK [6mer-2-595], in the assay with acetylcholine receptor [1], the Binding affinity (RU) turned out to be 154 RU.

In the assay with acetylcholine receptor [1], RVQQKR [6mer-2-581] displayed a Binding affinity (RU) of 139 RU.

Consider KSQRRK [6mer-2-572], for which the Binding affinity (RU) in the assay with acetylcholine receptor [1] came out at 148 RU.

Take RRRYRK [6mer-2-599]: the Binding affinity (RU) with acetylcholine receptor [1] is 121 RU.

Take RHSVK [5mer-900]: the Binding affinity (RU) in the assay with acetylcholine receptor [5] amounted to 29 RU.

Turning to KWQQRR [6mer-2-580], the Binding affinity (RU) with acetylcholine receptor [1] stood at 121 RU.

On to KRVQRR [6mer-2-577], for which the Binding affinity (RU) in the assay with acetylcholine receptor [1] was determined as 139 RU.

In the case of RWQQRK [6mer-2-589], the Binding affinity (RU) with acetylcholine receptor [1] was 153 RU.

In the case of KNNNR [5mer-1199], the Binding affinity (RU) in the assay with acetylcholine receptor [5] stood at 29 RU.

As to RWLSRK [6mer-2-586], the Binding affinity (RU) with acetylcholine receptor [1] is 121 RU.

For KSVTKK [6mer-2-583], the Binding affinity (RU) with acetylcholine receptor [1] turned out to be 154 RU.

KWVSR [5mer-599]: the Binding affinity (RU) with acetylcholine receptor [6] is 61 RU.

The molecule KGIQKK [6mer-2-596] yielded a Binding affinity (RU) in the assay with acetylcholine receptor [1] of 153 RU.

On to RSFRRK [6mer-2-585], for which the Binding affinity (RU) with acetylcholine receptor [1] was determined as 136 RU.

In turn, RYTFR [5mer-899] displayed a Binding affinity (RU) with acetylcholine receptor [5] of 31 RU.

In the assay with acetylcholine receptor [6], RQYRK [5mer-300] registered a Binding affinity (RU) of 81 RU.

As for KLYSK [5mer-600], in the assay with acetylcholine receptor [6], the Binding affinity (RU) stood at 64 RU.

As for RWQTRK [6mer-2-582], the Binding affinity (RU) with acetylcholine receptor [1] was 148 RU.

In the assay with acetylcholine receptor [1], RGYQRR [6mer-2-571] came in with a Binding affinity (RU) of 135 RU.

For KGRRK [5mer-299], the Binding affinity (RU) with acetylcholine receptor [6] turned out to be 62 RU.

As for RKSLLR [Espep2-6mer], the RU value in assay [7] came to 177 RU. Also, the fold higher affinity compared to Synake in assay [8] came out at 40 times. In addition, the Kd in [9] was 57 µM.

In the assay with acetylcholine receptor [1], KQFLRK [6mer-2-597] registered a Binding affinity (RU) of 154 RU.

Regarding KGVSRR [6mer-2-576], in the assay with acetylcholine receptor [1], the Binding affinity (RU) came out at 139 RU.

With RWYRRR [6mer-2-594], in the assay with acetylcholine receptor [1], the Binding affinity (RU) came to 139 RU.

Values taken from patent US20250011363A1, “OPTIMIZED SHORTENED PEPTIDE THAT BINDS TO ACETYLCHOLINE RECEPTOR, AND USE THEREOF” (SKINMED CO., LTD., priority 2021, published 2025).
